According to WO2006046344A1 (dated 2006):

B1: huPrP-39 (scFv, V domains shown)
VH: EVQLVQSGGGLVQPGRSLRLSCAASGFTFGDYAMSWVRQAPGKGPEWIATISSSGDILDYADSVRGRFSISRDNAQRSLHLQMTSLRPDDSAIYYCAREYFFSFDVWGRGTTVTVSS
VL: QSVLAQPPSLSVSPGQTARITCSGDGVGSGFVSWYQQRPGQSPSVVIYDDAKRPSGIPERFSGSNSGDTATLTISESRAVDEADYYCQTWDSRSPVFGGGTKVTVLG
B2: boPrP-15 (scFv)
chain 1: QVQLVQSGAEVKKPGASVKVSCKASGYTFTSYGISWVRQAPGQGLEWMGWISAYNGNTNYAQKLQGRVTMTTDTSTSTAYMELRSLRSDDTAVYYCARYGGRIAAASYNWFDPWGQGTLAICPDSACLRVWVSWTVDHLVTVSS
chain 2: QSALTQPASVSGSPGQSITISCTGTSSDVGGYNYVSWYQQHPGKAPRLMIYDVSNRPSGVSNRFSGSKSGNTASLTISGLQSEDEADYYCSSYTSSSTLVFGTGTKLTVLG
B3: boPrP-2 (scFv, V domains shown)
VH: QVQLVQSGGGLVQPGRSLRLSCAASGFTFDDYAMHWVRQAPGKGLEWVSGISWNSGSIGYADSVKGRFTISRDNAKNSLYLQMNSLRAEDTALYYCAKGGGSYYYFDYWGQGTLVTVSS
VL: QSVLTQPPSVSGAPGQRVSISCTGNRSNIGAGYDVHWYQQVPGMAPKLLIYGNTKRPSGVPDRFSGSKSGTSASLAITGLQAEDEADYYCQSFDNTLSDSRWVFGGGTKLTVLG
B4: huPrP-18 (scFv, V domains shown)
VH: QVQLVQSGAEVKKPGASVKVSCKASGYTFTSYPIHWVRQAPGQRLEWMGWLNPGTGVTKYSQNFQGRVTLTSDTSANTAYLELSSLRSEDTALYYCTRDPLDSRKNWFDPWGQGTLVTVSS
VL: SYVLTQPPSASGTPGQRVTISCSGSNSNIGTNFVYWYQQLPGTAPKLLIYRNNQRPSGVPDRFSGSKSGTSASLAISGLRSEDEADYYCAAWDDSLSGRVFGGGTQLTVLG
B5: boPrP-20 (scFv, V domains shown)
VH: QVQLVQSGGGLVQPGRSLRLSCAASGFTFDDYAMHWVRQAPGKGLEWVSGISWNSGSIGYADSVKGRFTISRDNAKNSLYLQMNSLRAEDTALYYCAKQGDEAAAGTGFDYWGQGTLVTVSS
VL: QSVLTQPPSASAAPGQGVTISCSGSSSNIGTNTVAWYQHLPETAPKLLIYHDSQRPSRVPGRVSGSKSGTSASLAISRLQSDDEADYYCATWDDSLNGWVFGGGTKLTVLG

Columns and labels:
[1] = biological target: human α form prion (human, UniProt P04156 90-230)
[2] = biological target: bovine α form prion (bovine, UniProt P10279 102-241)

Binder	Kd [1]	Kd [2]
B1	0.033 µM	0.029 µM
B2	0.0078 µM	0.0046 µM
B3	0.11 µM	0.41 µM
B4	0.02 µM	0.06 µM
B5	0.036 µM	
